According to patent publication US20250277199, “NOVEL CRISPR-CAS NUCLEASES FROM METAGENOMES” (Brain Biotech AG, published 2025):

Molecular target: T1, BMC02 (uncultured bacterium (metagenome))
T1 chain: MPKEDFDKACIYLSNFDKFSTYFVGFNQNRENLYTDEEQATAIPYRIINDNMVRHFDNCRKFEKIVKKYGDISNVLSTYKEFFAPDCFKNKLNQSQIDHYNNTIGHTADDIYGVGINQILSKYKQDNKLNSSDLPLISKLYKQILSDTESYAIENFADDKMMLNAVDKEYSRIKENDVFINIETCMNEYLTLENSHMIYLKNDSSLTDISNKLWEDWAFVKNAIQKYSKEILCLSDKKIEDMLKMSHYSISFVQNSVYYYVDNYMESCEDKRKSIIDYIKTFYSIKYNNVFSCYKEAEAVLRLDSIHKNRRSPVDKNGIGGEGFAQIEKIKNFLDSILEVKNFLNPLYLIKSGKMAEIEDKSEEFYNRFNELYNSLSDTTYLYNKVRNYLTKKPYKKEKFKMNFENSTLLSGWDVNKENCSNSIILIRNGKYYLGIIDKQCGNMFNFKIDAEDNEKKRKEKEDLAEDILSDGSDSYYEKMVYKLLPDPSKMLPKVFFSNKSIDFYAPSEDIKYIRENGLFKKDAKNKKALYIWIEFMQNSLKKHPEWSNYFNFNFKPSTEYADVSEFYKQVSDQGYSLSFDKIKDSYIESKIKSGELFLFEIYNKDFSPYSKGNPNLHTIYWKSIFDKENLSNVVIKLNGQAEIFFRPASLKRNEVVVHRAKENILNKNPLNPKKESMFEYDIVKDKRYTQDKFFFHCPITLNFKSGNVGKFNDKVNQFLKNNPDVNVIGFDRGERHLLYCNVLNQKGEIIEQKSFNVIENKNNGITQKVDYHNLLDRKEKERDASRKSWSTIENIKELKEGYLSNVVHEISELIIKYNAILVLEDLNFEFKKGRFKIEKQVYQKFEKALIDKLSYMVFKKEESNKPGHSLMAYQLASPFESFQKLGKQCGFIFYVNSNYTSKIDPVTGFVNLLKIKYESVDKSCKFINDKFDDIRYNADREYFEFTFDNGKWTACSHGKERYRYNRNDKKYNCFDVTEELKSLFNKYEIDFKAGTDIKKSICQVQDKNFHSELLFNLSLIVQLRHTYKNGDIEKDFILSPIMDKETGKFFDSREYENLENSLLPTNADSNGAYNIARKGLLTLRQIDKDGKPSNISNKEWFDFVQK
Experiment: cell_activity; PAM not stated; E. coli depletion, 30 C
Summary of the method: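 E. coli carrying arabinose-induced (0.2%) BMC nuclease, grown at 30° C., made electrocompetent and electroporated with 50-100 ng plasmid carrying gRNA against malQ. Transformants plated on selective M9-glucose agar with kanamycin/ampicillin (± nourseothricin), and growth scored after 48 h at 30° C.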

B1: malQ gRNA (BMC stem-loop + 24 nt spacer) ; malQ protospacer (ssRNA ; dsDNA)
RNA: GAUUUCUACUAUUGUAGAUGUGGCGGUACGUUGAUGCAUCGCG
DNA 1: GTGGCGGTACGTTGATGCATCGCG
DNA 2: CGCGATGCATCAACGTACCGCCAC
  activity: > 99.9 % colony reduction
